# According to US20240132573A1:
# Columns and labels:
# Test in all cases: cell-based or functional assay
# [1] = target: T1, Human βFXIIa (Human) (UniProt P00748)
# T1 sequence (looked up): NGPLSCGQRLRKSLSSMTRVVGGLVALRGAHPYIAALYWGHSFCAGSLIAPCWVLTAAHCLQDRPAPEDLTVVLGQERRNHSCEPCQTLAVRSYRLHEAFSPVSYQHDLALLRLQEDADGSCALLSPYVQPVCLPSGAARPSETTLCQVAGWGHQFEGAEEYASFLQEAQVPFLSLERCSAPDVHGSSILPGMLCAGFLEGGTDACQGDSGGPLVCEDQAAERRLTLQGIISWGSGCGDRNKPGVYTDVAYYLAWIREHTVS
# [2] = target: Activated protein C (UniProt P04070)
# [3] = target: Plasma kallikrein (UniProt P03952)
# [4] = target: Human αFXIIa (Human) (UniProt P00748)
# [5] = target: Plasmin (UniProt P00747)
# [6] = target: Thrombin (UniProt P00734)
# Sequence of Activated protein C (P04070 43-461): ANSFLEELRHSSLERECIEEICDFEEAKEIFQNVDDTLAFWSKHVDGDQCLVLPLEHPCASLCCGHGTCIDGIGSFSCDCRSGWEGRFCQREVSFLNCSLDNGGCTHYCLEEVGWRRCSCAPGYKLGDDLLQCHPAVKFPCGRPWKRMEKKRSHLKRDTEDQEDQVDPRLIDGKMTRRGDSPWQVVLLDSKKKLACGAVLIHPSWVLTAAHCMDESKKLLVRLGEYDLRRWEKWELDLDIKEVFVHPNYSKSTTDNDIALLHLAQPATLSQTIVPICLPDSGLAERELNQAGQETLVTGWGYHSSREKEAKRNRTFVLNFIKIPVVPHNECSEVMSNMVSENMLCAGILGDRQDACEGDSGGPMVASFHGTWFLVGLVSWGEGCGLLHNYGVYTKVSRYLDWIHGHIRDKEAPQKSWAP
# Sequence of α1-Antitrypsin WT (P01009 25-418): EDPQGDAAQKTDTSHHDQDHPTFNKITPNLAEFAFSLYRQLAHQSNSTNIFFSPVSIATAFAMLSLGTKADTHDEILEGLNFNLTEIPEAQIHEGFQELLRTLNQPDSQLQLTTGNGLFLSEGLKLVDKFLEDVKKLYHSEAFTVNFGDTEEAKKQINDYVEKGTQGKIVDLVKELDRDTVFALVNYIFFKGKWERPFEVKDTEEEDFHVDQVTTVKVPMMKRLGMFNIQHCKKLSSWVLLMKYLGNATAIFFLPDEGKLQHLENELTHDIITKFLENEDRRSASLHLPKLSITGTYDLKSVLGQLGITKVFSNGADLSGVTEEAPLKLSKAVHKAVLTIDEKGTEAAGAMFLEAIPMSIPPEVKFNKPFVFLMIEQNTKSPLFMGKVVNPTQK
# Sequence of Plasmin (P00747 97-810 limits assumed): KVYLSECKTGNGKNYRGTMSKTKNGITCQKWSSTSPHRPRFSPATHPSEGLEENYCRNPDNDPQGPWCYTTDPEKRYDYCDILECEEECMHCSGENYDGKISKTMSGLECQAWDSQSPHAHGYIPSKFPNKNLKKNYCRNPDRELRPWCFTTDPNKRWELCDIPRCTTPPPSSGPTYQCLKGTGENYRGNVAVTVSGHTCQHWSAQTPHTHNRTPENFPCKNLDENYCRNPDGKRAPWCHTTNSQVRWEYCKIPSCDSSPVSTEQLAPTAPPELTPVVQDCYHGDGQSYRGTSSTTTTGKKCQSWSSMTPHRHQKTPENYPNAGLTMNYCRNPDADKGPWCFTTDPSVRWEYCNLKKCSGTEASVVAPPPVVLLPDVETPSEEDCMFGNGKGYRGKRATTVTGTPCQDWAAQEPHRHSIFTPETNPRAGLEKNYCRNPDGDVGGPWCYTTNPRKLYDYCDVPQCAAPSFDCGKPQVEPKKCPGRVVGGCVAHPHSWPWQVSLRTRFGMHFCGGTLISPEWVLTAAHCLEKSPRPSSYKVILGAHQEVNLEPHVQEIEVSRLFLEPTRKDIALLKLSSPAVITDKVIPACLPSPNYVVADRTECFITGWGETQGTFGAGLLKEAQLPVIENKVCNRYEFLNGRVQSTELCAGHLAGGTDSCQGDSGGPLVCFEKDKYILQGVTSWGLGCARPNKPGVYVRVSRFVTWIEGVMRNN
# Sequence of Plasma kallikrein (P03952 20-638 limits assumed): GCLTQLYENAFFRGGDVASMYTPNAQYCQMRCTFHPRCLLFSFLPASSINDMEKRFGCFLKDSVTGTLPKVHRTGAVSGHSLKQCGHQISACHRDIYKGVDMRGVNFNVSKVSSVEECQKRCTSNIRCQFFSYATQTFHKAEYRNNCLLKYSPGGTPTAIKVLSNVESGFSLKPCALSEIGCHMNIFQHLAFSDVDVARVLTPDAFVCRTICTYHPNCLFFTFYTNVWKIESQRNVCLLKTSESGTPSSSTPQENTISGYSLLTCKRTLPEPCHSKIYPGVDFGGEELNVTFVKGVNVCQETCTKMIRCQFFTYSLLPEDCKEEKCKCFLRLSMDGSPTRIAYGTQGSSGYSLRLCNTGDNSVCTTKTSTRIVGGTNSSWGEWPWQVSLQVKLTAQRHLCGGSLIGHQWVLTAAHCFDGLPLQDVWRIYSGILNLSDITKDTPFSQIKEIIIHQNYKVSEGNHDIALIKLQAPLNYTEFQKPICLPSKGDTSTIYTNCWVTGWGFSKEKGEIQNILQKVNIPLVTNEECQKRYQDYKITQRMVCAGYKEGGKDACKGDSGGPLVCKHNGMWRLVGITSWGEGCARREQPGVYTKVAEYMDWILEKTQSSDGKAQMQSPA
Substance,"percentage inhibition, average (L2120 conversion) [1] [%]","percentage inhibition, average (S2366 conversion) [2] [%]","percentage inhibition, average (L2120 conversion) [3] [%]","percentage inhibition, average (L2120 conversion) [4] [%]","percentage inhibition, average (I1390 conversion) [5] [%]","percentage inhibition, average (I1140 conversion) [6] [%]"
α1-Antitrypsin WT (from UniProt P01009 25-418),0,0,0,0,0,0
α1-Antitrypsin variant 357AR358 (from UniProt P01009 25-418),49,66.5,98,62.5,99,97.5
α1-Antitrypsin variant SATRox* (from UniProt P01009 25-418),15,10,94,17,0,3
α1-Antitrypsin variant SDYKox* (from UniProt P01009 25-418),7,1,50,–,7,0
α1-Antitrypsin variant SEARox* (from UniProt P01009 25-418),6,3,92,–,13,0
α1-Antitrypsin variant SFNRox* (from UniProt P01009 25-418),3,5,94,5,3,7
α1-Antitrypsin variant SGNRox* (from UniProt P01009 25-418),5.2,1,71.6,–,1,0
α1-Antitrypsin variant SLGRox* (from UniProt P01009 25-418),17.3,1,95.5,–,5.3,9.5
α1-Antitrypsin variant SLLRox* (from UniProt P01009 25-418),41,9.7,97.7,–,94.7,62.3
α1-Antitrypsin variant SLLRox*-I (from UniProt P01009 25-418),40.3,2.3,91.3,–,66.7,3.7
α1-Antitrypsin variant SLLRox*-V (from UniProt P01009 25-418),47,3,97.5,–,68,4.5
α1-Antitrypsin variant SMDRox* (from UniProt P01009 25-418),4,0,87,–,20,0
α1-Antitrypsin variant SMHRox* (from UniProt P01009 25-418),18.3,34,96.3,–,73,10
α1-Antitrypsin variant SMTRox* (from UniProt P01009 25-418),89.2,76.5,98.7,92.5,94.5,10.3
α1-Antitrypsin variant SMTRox*-GVGG (from UniProt P01009 25-418),9,3,39,–,20,3
α1-Antitrypsin variant SPRRox* (from UniProt P01009 25-418),2,1,97,1,19,0
α1-Antitrypsin variant SVRKox* (from UniProt P01009 25-418),0,4,91,2,97,1
α1-Antitrypsin variant SYARox* (from UniProt P01009 25-418),20,7,97,–,0,62

# The remaining lines, values ahead:
"percentage inhibition, average (L2120 conversion) [1] [%]","percentage inhibition, average (S2366 conversion) [2] [%]","percentage inhibition, average (L2120 conversion) [3] [%]","percentage inhibition, average (L2120 conversion) [4] [%]","percentage inhibition, average (I1390 conversion) [5] [%]","percentage inhibition, average (I1140 conversion) [6] [%]",Substance
90,94,91.5,94,100,100,α1-Antitrypsin variant M358R (from UniProt P01009 25-418)
4,6.5,88,4.5,5,14.5,α1-Antitrypsin variant SGQRox* (from UniProt P01009 25-418)
22,0,97,–,37,7,α1-Antitrypsin variant SKGRox* (from UniProt P01009 25-418)
85,75,98.5,88.5,94,10.5,α1-Antitrypsin variant SMTR (from UniProt P01009 25-418)
29,0,47,–,8,1,α1-Antitrypsin variant SMTRox*-VVGG (from UniProt P01009 25-418)
20,7,97,–,0,62,α1-Antitrypsin variant SNSRox* (from UniProt P01009 25-418)
39,49,99,47,97,7,α1-Antitrypsin variant SVTRox* (from UniProt P01009 25-418)
2,8,55,4,95,6,α1-Antitrypsin variant SVVKox* (from UniProt P01009 25-418)
5,0,94,–,47,0,α1-Antitrypsin variant SWKKox* (from UniProt P01009 25-418)
